Laboratory results as given in IntAct's records for PubMed 19737519.

B1: Ribosome assembly protein 4 (Saccharomyces cerevisiae), P25382 (parent)
chain: MSTLIPPPSKKQKKEAQLPREVAIIPKDLPNVSIKFQALDTGDNVGGALRVPGAISEKQLEELLNQLNGTSDDPVPYTFSCTIQGKKASDPVKTIDITDNLYSSLIKPGYNSTEDQITLLYTPRAVFKVKPVTRSSSAIAGHGSTILCSAFAPHTSSRMVTGAGDNTARIWDCDTQTPMHTLKGHYNWVLCVSWSPDGEVIATGSMDNTIRLWDPKSGQCLGDALRGHSKWITSLSWEPIHLVKPGSKPRLASSSKDGTIKIWDTVSRVCQYTMSGHTNSVSCVKWGGQGLLYSGSHDRTVRVWDINSQGRCINILKSHAHWVNHLSLSTDYALRIGAFDHTGKKPSTPEEAQKKALENYEKICKKNGNSEEMMVTASDDYTMFLWNPLKSTKPIARMTGHQKLVNHVAFSPDGRYIVSASFDNSIKLWDGRDGKFISTFRGHVASVYQVAWSSDCRLLVSCSKDTTLKVWDVRTRKLSVDLPGHKDEVYTVDWSVDGKRVCSGGKDKMVRLWTH

Variants of: B1
Conditions: with mdn1_yeast MDN1, Q12019
Chain of mdn1_yeast MDN1, Q12019 (Q12019 whole entry): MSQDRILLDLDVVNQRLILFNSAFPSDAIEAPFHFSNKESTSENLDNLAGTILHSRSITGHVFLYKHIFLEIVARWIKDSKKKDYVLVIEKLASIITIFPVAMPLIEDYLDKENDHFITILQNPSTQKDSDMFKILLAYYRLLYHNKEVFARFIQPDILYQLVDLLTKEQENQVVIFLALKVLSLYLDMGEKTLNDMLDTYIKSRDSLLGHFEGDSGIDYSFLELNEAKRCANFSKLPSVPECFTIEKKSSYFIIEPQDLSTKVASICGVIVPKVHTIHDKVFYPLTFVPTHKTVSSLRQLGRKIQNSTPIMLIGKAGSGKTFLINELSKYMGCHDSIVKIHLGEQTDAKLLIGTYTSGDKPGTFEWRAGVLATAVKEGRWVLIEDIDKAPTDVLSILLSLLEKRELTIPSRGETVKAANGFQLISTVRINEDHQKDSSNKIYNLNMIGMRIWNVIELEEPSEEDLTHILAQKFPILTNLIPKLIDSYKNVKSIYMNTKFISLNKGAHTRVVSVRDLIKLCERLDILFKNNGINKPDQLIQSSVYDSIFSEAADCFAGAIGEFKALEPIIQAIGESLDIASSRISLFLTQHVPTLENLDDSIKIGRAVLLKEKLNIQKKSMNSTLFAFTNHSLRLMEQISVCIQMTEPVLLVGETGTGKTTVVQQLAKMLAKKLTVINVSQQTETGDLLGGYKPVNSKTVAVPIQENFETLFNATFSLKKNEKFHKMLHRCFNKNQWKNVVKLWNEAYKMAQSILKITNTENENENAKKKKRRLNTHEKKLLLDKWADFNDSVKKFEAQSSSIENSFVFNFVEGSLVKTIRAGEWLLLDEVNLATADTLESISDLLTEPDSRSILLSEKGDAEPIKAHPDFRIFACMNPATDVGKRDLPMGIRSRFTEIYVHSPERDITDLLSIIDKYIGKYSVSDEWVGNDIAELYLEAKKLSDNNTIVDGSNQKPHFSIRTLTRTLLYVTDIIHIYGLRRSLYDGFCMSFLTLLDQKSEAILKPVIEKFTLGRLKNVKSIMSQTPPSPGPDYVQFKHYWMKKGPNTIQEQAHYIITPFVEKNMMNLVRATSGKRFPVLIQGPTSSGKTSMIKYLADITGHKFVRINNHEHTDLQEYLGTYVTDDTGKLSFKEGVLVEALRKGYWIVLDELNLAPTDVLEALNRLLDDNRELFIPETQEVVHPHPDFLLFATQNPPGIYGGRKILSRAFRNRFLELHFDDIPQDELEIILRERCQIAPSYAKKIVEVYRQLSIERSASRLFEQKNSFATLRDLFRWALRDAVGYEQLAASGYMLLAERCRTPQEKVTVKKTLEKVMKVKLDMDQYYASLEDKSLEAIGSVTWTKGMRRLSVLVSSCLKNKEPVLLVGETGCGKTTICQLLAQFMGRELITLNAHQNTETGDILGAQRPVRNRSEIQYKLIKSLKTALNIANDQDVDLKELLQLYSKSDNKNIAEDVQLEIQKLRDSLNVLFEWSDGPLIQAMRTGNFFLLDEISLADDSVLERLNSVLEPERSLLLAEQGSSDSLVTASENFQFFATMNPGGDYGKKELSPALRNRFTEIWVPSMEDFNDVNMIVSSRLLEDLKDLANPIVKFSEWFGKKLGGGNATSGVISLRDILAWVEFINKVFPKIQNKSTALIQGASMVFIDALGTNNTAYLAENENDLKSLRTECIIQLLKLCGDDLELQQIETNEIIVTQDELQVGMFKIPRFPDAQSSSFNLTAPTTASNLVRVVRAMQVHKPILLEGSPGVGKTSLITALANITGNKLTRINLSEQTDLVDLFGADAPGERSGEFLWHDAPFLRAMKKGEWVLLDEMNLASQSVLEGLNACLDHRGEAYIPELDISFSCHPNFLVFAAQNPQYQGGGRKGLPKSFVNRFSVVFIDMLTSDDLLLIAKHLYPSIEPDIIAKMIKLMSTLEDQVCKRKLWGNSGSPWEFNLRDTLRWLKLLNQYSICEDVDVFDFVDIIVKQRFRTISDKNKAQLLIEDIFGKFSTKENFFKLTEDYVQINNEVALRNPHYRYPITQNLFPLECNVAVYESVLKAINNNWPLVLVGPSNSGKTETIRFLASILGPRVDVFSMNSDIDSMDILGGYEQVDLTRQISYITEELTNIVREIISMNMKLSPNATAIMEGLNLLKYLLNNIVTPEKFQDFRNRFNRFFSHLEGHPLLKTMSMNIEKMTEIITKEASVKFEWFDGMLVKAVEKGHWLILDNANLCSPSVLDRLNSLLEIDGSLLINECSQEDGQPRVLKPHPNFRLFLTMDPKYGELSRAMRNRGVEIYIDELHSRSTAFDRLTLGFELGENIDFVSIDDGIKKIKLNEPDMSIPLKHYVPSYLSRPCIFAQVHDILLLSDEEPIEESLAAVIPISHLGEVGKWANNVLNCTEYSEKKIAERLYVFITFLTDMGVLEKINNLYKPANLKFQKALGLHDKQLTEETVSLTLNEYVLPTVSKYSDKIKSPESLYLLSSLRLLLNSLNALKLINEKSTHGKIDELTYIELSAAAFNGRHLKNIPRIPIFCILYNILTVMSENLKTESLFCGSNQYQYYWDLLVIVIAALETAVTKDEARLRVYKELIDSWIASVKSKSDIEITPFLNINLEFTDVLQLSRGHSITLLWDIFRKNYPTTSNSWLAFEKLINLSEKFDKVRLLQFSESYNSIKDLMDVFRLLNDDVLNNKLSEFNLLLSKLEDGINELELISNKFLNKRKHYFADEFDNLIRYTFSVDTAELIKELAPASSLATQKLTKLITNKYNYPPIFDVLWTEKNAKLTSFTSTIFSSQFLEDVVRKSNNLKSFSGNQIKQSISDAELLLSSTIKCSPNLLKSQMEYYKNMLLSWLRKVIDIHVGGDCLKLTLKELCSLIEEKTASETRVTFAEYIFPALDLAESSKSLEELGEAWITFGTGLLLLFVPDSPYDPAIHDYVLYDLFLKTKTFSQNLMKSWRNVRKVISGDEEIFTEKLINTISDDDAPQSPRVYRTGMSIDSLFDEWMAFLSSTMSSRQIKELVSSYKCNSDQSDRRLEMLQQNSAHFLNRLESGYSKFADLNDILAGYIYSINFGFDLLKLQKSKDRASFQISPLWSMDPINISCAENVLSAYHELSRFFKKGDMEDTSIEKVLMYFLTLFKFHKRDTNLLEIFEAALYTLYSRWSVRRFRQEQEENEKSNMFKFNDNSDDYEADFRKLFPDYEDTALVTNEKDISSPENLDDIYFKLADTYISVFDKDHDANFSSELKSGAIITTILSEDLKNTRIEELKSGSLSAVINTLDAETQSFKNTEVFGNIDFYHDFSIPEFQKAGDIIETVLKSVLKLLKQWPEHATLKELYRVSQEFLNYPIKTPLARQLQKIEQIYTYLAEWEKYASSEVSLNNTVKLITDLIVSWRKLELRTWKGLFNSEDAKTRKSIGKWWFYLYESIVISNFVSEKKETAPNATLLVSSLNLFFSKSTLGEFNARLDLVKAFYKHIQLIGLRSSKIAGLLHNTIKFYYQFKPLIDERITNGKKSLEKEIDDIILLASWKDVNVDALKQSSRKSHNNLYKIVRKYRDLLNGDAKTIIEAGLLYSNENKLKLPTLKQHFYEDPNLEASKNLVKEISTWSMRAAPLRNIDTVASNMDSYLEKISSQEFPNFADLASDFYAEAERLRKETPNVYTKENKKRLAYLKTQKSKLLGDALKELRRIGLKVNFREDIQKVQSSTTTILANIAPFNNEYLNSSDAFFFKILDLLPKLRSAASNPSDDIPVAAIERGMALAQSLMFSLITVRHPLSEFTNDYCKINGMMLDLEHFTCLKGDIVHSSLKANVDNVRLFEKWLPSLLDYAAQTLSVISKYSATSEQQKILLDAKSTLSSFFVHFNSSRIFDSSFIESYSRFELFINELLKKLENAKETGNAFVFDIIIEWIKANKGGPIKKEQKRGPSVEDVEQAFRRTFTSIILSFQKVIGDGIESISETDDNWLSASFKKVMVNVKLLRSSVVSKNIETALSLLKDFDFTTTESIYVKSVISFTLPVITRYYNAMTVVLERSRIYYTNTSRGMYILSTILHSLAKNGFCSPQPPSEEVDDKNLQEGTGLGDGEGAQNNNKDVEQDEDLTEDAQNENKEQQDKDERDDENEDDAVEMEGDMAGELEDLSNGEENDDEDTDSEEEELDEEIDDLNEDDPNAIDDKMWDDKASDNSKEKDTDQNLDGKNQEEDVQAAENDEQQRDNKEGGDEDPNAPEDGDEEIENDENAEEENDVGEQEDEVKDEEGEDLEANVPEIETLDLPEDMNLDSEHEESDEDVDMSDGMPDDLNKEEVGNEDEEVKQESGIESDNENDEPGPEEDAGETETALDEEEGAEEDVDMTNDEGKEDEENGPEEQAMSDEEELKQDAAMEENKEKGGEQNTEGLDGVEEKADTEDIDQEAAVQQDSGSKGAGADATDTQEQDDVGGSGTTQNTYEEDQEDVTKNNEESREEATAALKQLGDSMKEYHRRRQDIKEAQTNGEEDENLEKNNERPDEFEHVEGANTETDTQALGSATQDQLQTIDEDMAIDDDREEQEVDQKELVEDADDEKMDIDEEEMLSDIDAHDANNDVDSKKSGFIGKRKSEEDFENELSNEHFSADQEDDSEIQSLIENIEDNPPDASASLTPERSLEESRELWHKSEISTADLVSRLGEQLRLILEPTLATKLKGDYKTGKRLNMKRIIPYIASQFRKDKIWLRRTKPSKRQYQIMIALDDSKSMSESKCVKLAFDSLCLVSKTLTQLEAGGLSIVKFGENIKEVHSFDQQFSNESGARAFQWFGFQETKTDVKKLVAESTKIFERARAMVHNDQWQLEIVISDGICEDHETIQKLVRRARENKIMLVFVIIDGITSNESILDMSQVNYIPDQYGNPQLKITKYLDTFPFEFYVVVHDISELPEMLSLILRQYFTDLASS

| effect of a mutation on the interaction | Variant |
| --- | --- |
| decreasing interaction | E114D |
| decreasing interaction | E114A |
